From the supplement of paper PMC11246515
± gives the standard deviation of the averaged measurements.

Test: total protein half-life in vivo (active degradation + dilution); higher = more stable protein
[1] = E. coli NCM3722 delta-clpP delta-lon delta-hslV, growth: N-lim chemostat, doubling time 6 h
[2] = E. coli NCM3722 delta-clpP, growth: N-lim chemostat, doubling time 6 h
[3] = E. coli NCM3722 delta-hslV, growth: N-lim chemostat, doubling time 6 h
[4] = E. coli NCM3722 delta-lon, growth: N-lim chemostat, doubling time 6 h
[5] = E. coli NCM3722 delta-smpB, growth: N-lim chemostat, doubling time 6 h
[6] = wild type E. coli NCM3722, growth: C-lim chemostat, doubling time 3 h
[7] = wild type E. coli NCM3722, growth: C-lim chemostat, doubling time 6 h
[8] = wild type E. coli NCM3722, growth: C-lim chemostat, doubling time 12 h
[9] = wild type E. coli NCM3722, growth: N-lim chemostat, doubling time 6 h
[10] = wild type E. coli NCM3722, growth: N-lim chemostat, doubling time 12 h
[11] = wild type E. coli NCM3722, growth: P-lim chemostat, doubling time 6 h
[12] = wild type E. coli NCM3722, growth: P-lim chemostat, doubling time 12 h

| Sequence | total protein half-life in vivo [1] [h] | total protein half-life in vivo [2] [h] | total protein half-life in vivo [3] [h] | total protein half-life in vivo [4] [h] | total protein half-life in vivo [5] [h] | total protein half-life in vivo [6] [h] | total protein half-life in vivo [7] [h] | total protein half-life in vivo [8] [h] | total protein half-life in vivo [9] [h] | total protein half-life in vivo [10] [h] | total protein half-life in vivo [11] [h] | total protein half-life in vivo [12] [h] |
| --- | --- | --- | --- | --- | --- | --- | --- | --- | --- | --- | --- | --- |
| MIPQISQAPGVVQLVLNFLQELEQQGFTGDTATSYADRLTMSTDNSIYQLLPDAVVFPRSTADVALIARLAAQERYSSLIFTPRGGGTGTNGQALNQGIIVDMSRHMNRIIEINPEEGWVRVEAGVIKDQLNQYLKPFGYFFAPELSTSNRATLGGMINTDASGQGSLVYGKTSDHVLGVRAVLLGGDILDTQPLPVELAETLGKSNTTIGRIYNTVYQRCRQQRQLIIDNFPKLNRFLTGYDLRHVFNDEMTEFDLTRILTGSEGTLAFITEARLDITRLPKVRRLVNVKYDSFDSALRNAPFMVEARALSVETVDSKVLNLAREDIVWHSVSELITDVPDQEMLGLNIVEFAGDDEALIDERVNALCARLDELIASHQAGVIGWQVCRELAGVERIYAMRKKAVGLLGNAKGAAKPIPFAEDTCVPPEHLADYIAEFRALLDSHGLSYGMFGHVDAGVLHVRPALDMCDPQQEILMKQISDDVVALTAKYGGLLWGEHGKGFRAEYSPAFFGEELFAELRKVKAAFDPHNRLNPGKICPPEGLDAPMMKVDAVKRGTFDRQIPIAVRQQWRGAMECNGNGLCFNFDARSPMCPSMKITQNRIHSPKGRATLVREWLRLLADRGVDPLKLEQELPESGVSLRTLIARTRNSWHANKGEYDFSHEVKEAMSGCLACKACSTQCPIKIDVPEFRSRFLQLYHTRYLRPLRDHLVATVESYAPLMARAPKTFNFFINQPLVRKLSEKHIGMVDLPLLSVPSLQQQMVGHRSANMTLEQLESLNAEQKARTVLVVQDPFTSYYDAQVVADFVRLVEKLGFQPVLLPFSPNGKAQHIKGFLNRFAKTAKKTADFLNRMAKLGMPMVGVDPALVLCYRDEYKLALGEERGEFNVLLANEWLASALESQPVATVSGESWYFFGHCTEVTALPGAPAQWAAIFARFGAKLENVSVGCCGMAGTYGHEAKNHENSLGIYELSWHQAMQRLPRNRCLATGYSCRSQVKRVEGTGVRHPVQALLEIIK | 5.93 ± 0.31 | 5.92 ± 0.38 | 6.06 ± 0.28 | 6.07 ± 0.22 | 5.58 ± 0.1 | 2.92 ± 0.41 | 5.76 ± 0.42 | 11.1 ± 0.65 | 5.75 ± 0.096 | 12.3 ± 0.23 | 5.88 ± 0.11 | 11.6 ± 0.3 |
| MIQKSKIKDLVVFTDENNSKYLNVLNDFLSYNINIIKVFRSIDDTKVMLIDTDYGKLILKVFSPKVKRNERFFKSLLKGDYYERLFEQTQKVRNEGLNTLNDFYLLAERKTLRFVHTYIMIIEYIDGIELCDMPDIDDALKNKIQQSINALHQHGMVSGDPHRGNFIIKNGEVRIIDLSGKRASAQRKAKDRIDLERHYGIKNEIRDLGYYLLVYRKKMRNFMRRLKGKPAR | – | 6.73 ± 0.18 | 5.7 ± 0.17 | 6.35 ± 0.15 | 6.04 ± 0.22 | 3.31 ± 0.043 | 5.885 ± 0.011 | 9.9 ± 1 | 5.86 ± 0.76 | 12.09 ± 0.019 | 5.84 ± 0.34 | 11.8 ± 0.82 |
| MIQPISGPPPGQPPGQGDNLPSGTGNQPLSSQQRTSLESLMTKVTSLTQQQRAELWAGIRHDIGLSGDSPLLSRHFPAAEHNLAQRLLAAQKSHSARQLLAQLGEYLRLGNNRQAVTDYIRHNFGQTPLNQLSPEQLKTILTLLQEGKMVIPQPQQREATDRPLLPAEHNALKQLVTKLAAATGEPSKQIWQSMLELSGVKDGELIPAKLFNHLVTWLQARQTLSQQNTPTLESLQMTLKQPLDASELAALSAYIQQKYGLSAQSSLSSAQAEDILNQLYQRRVKGIDPRVMQPLLNPFPPMMDTLQNMATRPALWILLVAIILMLVWLVR | 3.57 ± 0.29 | 3.889 ± 0.021 | 3.71 ± 0.25 | 3.18 ± 0.34 | 3.56 ± 0.12 | 2.64 ± 0.22 | 4.57 ± 0.41 | 6.56 | 3.65 ± 0.16 | 5.38 ± 0.4 | 3.705 ± 0.012 | 6.51 ± 0.24 |
| MIQSQINRNIRLDLADAILLSKAKKDLSFAEIADGTGLAEAFVTAALLGQQALPADAARLVGAKLDLDEDSILLLQMIPLRGCIDDRIPTDPTMYRFYEMLQVYGTTLKALVHEKFGDGIISAINFKLDVKKVADPEGGERAVITLDGKYLPTKPF | 5.03 ± 0.21 | – | – | 5.12 | – | – | 5.48 | 10.6 ± 0.58 | 3.64 | 11.9 | – | 11.1 |
| MIRFEHVSKAYLGGRQALQGVTFHMQPGEMAFLTGHSGAGKSTLLKLICGIERPSAGKIWFSGHDITRLKNREVPFLRRQIGMIFQDHHLLMDRTVYDNVAIPLIIAGASGDDIRRRVSAALDKVGLLDKAKNFPIQLSGGEQQRVGIARAVVNKPAVLLADEPTGNLDDALSEGILRLFEEFNRVGVTVLMATHDINLISRRSYRMLTLSDGHLHGGVGHE [P0A9R7] | 5.85 ± 0.08 | – | 5.57 ± 0.067 | 5.62 ± 0.4 | 5.32 ± 0.056 | 2.762 ± 0.02 | 5.52 ± 0.12 | 10.1 ± 0.31 | 5.48 ± 0.17 | 9.44 ± 1.1 | 5.26 ± 0.17 | 11.9 ± 2.3 |
| MIRLAPLITADVDTTTLPGGKASDAAQDFLALLSEALAGETTTDKAAPQLLVATDKPTTKGEPLISDIVSDAQQANLLIPVDETPPVINDEQSTSTPLTTAQTMALAAVADKNTTKDEKADDLNEDVTASLSALFAMLPGFDNTPKVTDAPSTVLPTEKPTLFTKLTSEQLTTAQPDDAPGTPAQPLTPLVAEAQSKAEVISTPSPVTAAASPLITPHQTQPLPTVAAPVLSAPLGSHEWQQSLSQHISLFTRQGQQSAELRLHPQDLGEVQISLKVDDNQAQIQMVSPHQHVRAALEAALPVLRTQLAESGIQLGQSNISGESFSGQQQAASQQQQSQRTANHEPLAGEDDDTLPVPVSLQGRVTGNSGVDIFA | 2.6 | – | – | – | – | 0.287 | 0.34 | – | – | – | – | – |
| MIRSMTAYARREIKGEWGSATWEMRSVNQRYLETYFRLPEQFRSLEPVVRERIRSRLTRGKVECTLRYEPDVSAQGELILNEKLAKQLVTAANWVKMQSDEGEINPVDILRWPGVMAAQEQDLDAIAAEILAALDGTLDDFIVARETEGQALKALIEQRLEGVTAEVVKVRSHMPEILQWQRERLVAKLEDAQVQLENNRLEQELVLLAQRIDVAEELDRLEAHVKETYNILKKKEAVGRRLDFMMQEFNRESNTLASKSINAEVTNSAIELKVLIEQMREQIQNIE | 4.67 ± 0.13 | 4.26 ± 0.17 | 4.15 ± 0.007 | 4.46 ± 0.36 | 4.24 ± 0.048 | 3.203 ± 0.032 | 5.69 ± 0.37 | 9.42 ± 0.49 | 4.21 ± 0.05 | 6.64 ± 0.2 | 5.83 ± 0.37 | 12.9 ± 1.8 |
